# Measurements as given in patent publication US20030199671A1, “Binding molecules for Fc-region polypeptides” (priority 2001, published 2003).
# Where two headings read alike, the source gives them in different places. Positions of bridges follow the written chain, without caps; N, C: chain ends. Residues, ends and D or L forms follow the SMILES beside them.
# How the values were obtained:
# IgG4 = IgG4 (Homo sapiens, UniProt P01861); format: binding; parameters: all human subtypes derived from myeloma patients; purchased Calbiochem 400126; host or cells: myeloma patients; conditions: for % IgG Capture - Batch Binding, Human IgG4: Table 9, immobilized peptide, 5.0 mg/ml resin load
# Summary of the method: (§1)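 Read-out is A280 of unbound IgG (1.4 mg/ml extinction coefficient), with percent bound derived against non-filtered or negative controls. Targets were incubated with immobilized peptides in PBST or TBST for 1-1.5 h at room temperature. Hydrolyzed Sepharose and immobilized Protein A serve as negative and positive controls.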
# mouse IgG = format: binding
# Summary of the method: (§2)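 Species specificity was assessed by static binding of unfractionated IgG to peptide resin in pH 7.2 phosphate or pH 7.5 Tris buffer with 0.01% Tween 20. Bound fraction was calculated from A280 of unbound target.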
# human IgG2 = molecular target: T1, human IgG2 (Homo sapiens, UniProt P01859); format: binding; conditions: for % IgG Capture - Batch Binding, Human IgG2: Table 9, immobilized peptide, 5.0 mg/ml resin load
# T1 construct: all human subtypes derived from myeloma patients; purchased Calbiochem 400122; host or cells: myeloma patients
# Summary of the method: as §1
# human IgG [1] = format: binding
# Summary of the method: as §2
# goat IgG = format: binding; conditions: Table 11; unfractionated IgG
# Summary of the method: as §2
# human IgG1 = molecular target: T2, human IgG1 (Homo sapiens, UniProt P01857); format: binding; conditions: for % IgG Capture - Batch Binding, Human IgG1: Table 9, immobilized peptide, 5.0 mg/ml resin load
# T2 construct: all human subtypes derived from myeloma patients; purchased Calbiochem 400120; host or cells: myeloma patients
# Summary of the method: as §1
# bovine IgG = format: binding; conditions: Table 11; unfractionated IgG
# Summary of the method: as §2
# IgG3 = IgG3 (Homo sapiens, UniProt P01860); format: binding; parameters: all human subtypes derived from myeloma patients; purchased Calbiochem 400124; host or cells: myeloma patients; conditions: for % IgG Capture - Batch Binding, Human IgG3: Table 9, immobilized peptide, 5.0 mg/ml resin load
# Summary of the method: as §1
# human IgG [2] = assay: Static (filterplate) binding capacity
# Protocol: These media were used to determine the effect of ligand density on human IgG binding capacity in both static (filterplate) and dynamic (mini-column) modes with commercial immobilized recombinant Protein A (Repligen, IPA400) at a single density as control. Actual ligand densities obtained ranged from 0.17 to 3.2 μmole/ml media as confirmed by quantitative amino acid analysis.
# After incubation of the samples, with shaking, at room temperature for one hour, the supernatant liquid from each well, containing unbound IgG, was collected by centrifugation into the cognate well of a collection plate. The assay plate was washed three times with PBST (200 μl/wash) and bound IgG was eluted from the media samples by incubation for 30-60 minutes at room temperature in 100 μl Elution Buffer (100 mM CAPS, pH 11.5). Eluates were collected by centrifugation for analysis. Protein concentrations were determined from A280 measurements and plotted as a function of mg human IgG bound per ml resin vs. mg human IgG applied per ml resin.
# The amount of IgG captured (estimated from IgG recovered in the elution step) by the various media is dependent upon both the IgG concentration and the ligand density. […] Under these static conditions, where both ligand and target concentrations are close to KD values, equilibrium binding is established and total capacities cannot be accurately determined. However, over the IgG range of 0 to 25 mg IgG applied per ml resin (0 to 2.5 mg/ml target added to 10 μl of resin), capture of IgG is linear. Beyond this point, up to a level of 200 mg IgG applied per ml resin, saturation becomes more pronounced.
# [3] = Table 10, elution 0.1 M sodium bicarbonate buffer, pH 8.5
# [4] = Table 14, average ligand density 1.8 μM/ml
# [5] = Table 10, elution 0.1 M sodium citrate buffer, pH 4.0
# T1 sequence (P01859 1-326 isoform P01859-1): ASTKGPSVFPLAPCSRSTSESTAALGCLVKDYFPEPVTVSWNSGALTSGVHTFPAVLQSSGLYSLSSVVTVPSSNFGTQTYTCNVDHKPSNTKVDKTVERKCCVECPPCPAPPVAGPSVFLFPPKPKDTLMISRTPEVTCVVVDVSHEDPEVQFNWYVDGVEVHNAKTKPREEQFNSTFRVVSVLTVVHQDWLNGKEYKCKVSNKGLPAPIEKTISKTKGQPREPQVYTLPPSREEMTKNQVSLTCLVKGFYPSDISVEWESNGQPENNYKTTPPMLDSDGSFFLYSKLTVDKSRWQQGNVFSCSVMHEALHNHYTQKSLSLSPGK
# T2 sequence (P01857 1-330 isoform P01857-1): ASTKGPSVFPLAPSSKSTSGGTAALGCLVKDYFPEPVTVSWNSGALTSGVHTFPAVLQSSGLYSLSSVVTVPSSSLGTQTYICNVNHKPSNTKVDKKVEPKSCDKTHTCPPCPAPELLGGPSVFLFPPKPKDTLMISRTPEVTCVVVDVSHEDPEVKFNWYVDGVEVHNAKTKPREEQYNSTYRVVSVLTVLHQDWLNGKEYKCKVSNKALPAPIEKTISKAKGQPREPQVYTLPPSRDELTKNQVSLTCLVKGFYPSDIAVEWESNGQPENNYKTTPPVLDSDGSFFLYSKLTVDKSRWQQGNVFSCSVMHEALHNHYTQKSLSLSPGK
# Sequence of IgG3 (P01860 1-377 isoform P01860-1): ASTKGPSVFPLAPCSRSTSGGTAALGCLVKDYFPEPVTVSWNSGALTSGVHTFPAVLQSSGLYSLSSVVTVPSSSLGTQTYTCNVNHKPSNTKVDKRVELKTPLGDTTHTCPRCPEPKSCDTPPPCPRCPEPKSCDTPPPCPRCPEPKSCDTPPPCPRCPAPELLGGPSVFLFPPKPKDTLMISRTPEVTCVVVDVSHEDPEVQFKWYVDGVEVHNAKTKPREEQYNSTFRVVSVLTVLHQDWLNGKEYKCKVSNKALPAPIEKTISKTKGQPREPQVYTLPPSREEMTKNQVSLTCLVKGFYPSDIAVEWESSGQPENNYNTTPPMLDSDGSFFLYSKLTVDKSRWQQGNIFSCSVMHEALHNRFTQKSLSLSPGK
# Sequence of IgG4 (P01861 1-327 isoform P01861-1): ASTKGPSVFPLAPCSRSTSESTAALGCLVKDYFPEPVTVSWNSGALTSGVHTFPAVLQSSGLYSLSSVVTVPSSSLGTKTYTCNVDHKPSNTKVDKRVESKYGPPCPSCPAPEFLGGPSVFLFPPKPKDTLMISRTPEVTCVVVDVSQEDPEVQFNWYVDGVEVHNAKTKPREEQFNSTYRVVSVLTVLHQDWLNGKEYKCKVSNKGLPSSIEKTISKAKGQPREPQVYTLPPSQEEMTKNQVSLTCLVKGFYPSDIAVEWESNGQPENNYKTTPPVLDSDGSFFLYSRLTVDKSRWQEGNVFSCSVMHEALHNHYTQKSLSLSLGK
compound,measurement,setting,value
CC[C@H](C)[C@@H]1NC(=O)[C@H](CCCCN)NC(=O)[C@@H](NC(=O)[C@H](Cc2c[nH]c3ccccc23)NC(=O)[C@H](Cc2ccc(O)cc2)NC(=O)[C@H](CO)NC(=O)CNC(=O)[C@H](C)NC(C)=O)CSSC[C@@H](C(=O)N2CCC[C@H]2C(=O)N[C@@H](CCC(N)=O)C(=O)N[C@@H](CO)C(=O)N2CCC[C@H]2C(=O)NCC(=O)N2CCC[C@H]2C(=O)N[C@@H](CCC(=O)O)C(=O)NCC(=O)NCC(=O)NCC(=O)N[C@@H](CCCCN)C(N)=O)NC(=O)[C@H](C(C)C)NC(=O)[C@H](CC(=O)O)NC(=O)[C@H](Cc2c[nH]c3ccccc23)NC1=O [DX392] (Ac-AGSYWCKIWDVCPQSPGPEGGGK-NH2; disulfide 6-12 (inferred)),"% IgG Capture - Batch Binding, Human IgG4",IgG4,9%
same,"% IgG Capture - Batch Binding, Mouse IgG","mouse IgG; Table 11, unfractionated IgG",0%
same,"% IgG Capture - Batch Binding, Human IgG2",human IgG2,15%
same,"% IgG Capture - Batch Binding, Human IgG","human IgG [1]; Table 11, unfractionated IgG",4%
same,"% IgG Capture - Batch Binding, Goat IgG",goat IgG,0%
same,"% IgG Capture - Batch Binding, Human IgG1",human IgG1,13%
same,"% IgG Capture - Batch Binding, Bovine IgG",bovine IgG,0%
same,"% IgG Capture - Batch Binding, Human IgG3",IgG3,76%
CC(=O)N[C@@H](C)C(=O)NCC(=O)N[C@@H](CCCCN)C(=O)N[C@@H](Cc1ccc(O)cc1)C(=O)N[C@@H](Cc1c[nH]c2ccccc12)C(=O)N[C@H]1CSSC[C@@H](C(=O)N2CCC[C@H]2C(=O)N[C@@H](C)C(=O)N[C@@H](CC(N)=O)C(=O)N2CCC[C@H]2C(=O)NCC(=O)N2CCC[C@H]2C(=O)N[C@@H](CCC(=O)O)C(=O)NCC(=O)NCC(=O)NCC(=O)N[C@@H](CCCCN)C(N)=O)NC(=O)[C@H](C(C)C)NC(=O)CNC(=O)[C@H](Cc2c[nH]c3ccccc23)NC(=O)[C@H](CC(C)C)NC(=O)[C@H](CC(N)=O)NC1=O [DX395],"% IgG Capture - Batch Binding, Human IgG4",IgG4,4%
same,"% IgG Capture - Batch Binding, Mouse IgG","mouse IgG; Table 11, unfractionated IgG",0%
same,"% IgG Capture - Batch Binding, Human IgG2",human IgG2,2%
same,"% IgG Capture - Batch Binding, Human IgG","human IgG [1]; Table 11, unfractionated IgG",19%
same,"% IgG Capture - Batch Binding, Goat IgG",goat IgG,0%
same,"% IgG Capture - Batch Binding, Human IgG1",human IgG1,21%
same,"% IgG Capture - Batch Binding, Bovine IgG",bovine IgG,0%
same,"% IgG Capture - Batch Binding, Human IgG3",IgG3,85%
Ac-GDRRACSRDWSGALVWCAGHEPGPEGGGK-NH2 (not fully specified (bridges); printed as Ac-GDRRACSRDWSGALVWCAGHEPGPEGGGK-NH2; cysteine pairing not given here) [DX253],"% IgG Capture - Batch Binding, Human IgG4",IgG4,33%
same,Human IgG4 elu pH 8.5 (% of Total Load),IgG4; [3],22%
same,hIgG4 elution pH 2.5 (% of Total Load),IgG4; Table 13,49%
same,hIgG4 elution pH 3.0 (% of Total Load),IgG4; Table 13,49%
same,hIgG4 elution pH 3.5 (% of Total Load),IgG4; Table 13,53%
same,hIgG4 elution pH 4.5 (% of Total Load),IgG4; Table 13,23%
same,hIgG4 elution pH 5.5 (% of Total Load),IgG4; Table 13,4%
same,hIgG4 elution pH 9.0 (% of Total Load),IgG4; Table 13,45%
same,hIgG4 elution pH 9.5 (% of Total Load),IgG4; Table 13,62%
same,Batch Binding (% Capture of Total Load) hIgG4,"IgG4; peptide immobilized on NHS activated sepharose 4 fast flow, target ligand density 2.0 μmole/ml, batch filterplate, hIgG4",58%
same,"% IgG Capture - Batch Binding, Mouse IgG","mouse IgG; Table 11, unfractionated IgG",2%
same,"% IgG Capture - Batch Binding, Mouse IgG",mouse IgG; [4],2%
same,Human IgG2 elu pH 8.5 (% of Total Load),human IgG2; [3],32%
same,Human IgG2 elu pH 4.0 (% of Total Load),human IgG2; [5],12%
same,hIgG2 elution pH 2.5 (% of Total Load),human IgG2; Table 13,78%
same,hIgG2 elution pH 3.0 (% of Total Load),human IgG2; Table 13,69%
same,hIgG2 elution pH 3.5 (% of Total Load),human IgG2; Table 13,55%
same,hIgG2 elution pH 4.5 (% of Total Load),human IgG2; Table 13,31%
same,hIgG2 elution pH 9.0 (% of Total Load),human IgG2; Table 13,42%
same,hIgG2 elution pH 9.5 (% of Total Load),human IgG2; Table 13,47%
same,Batch Binding (% Capture of Total Load) hIgG2,"human IgG2; peptide immobilized on NHS activated sepharose 4 fast flow, target ligand density 2.0 μmole/ml, batch filterplate, hIgG2",80%
same,"% IgG Capture - Batch Binding, Human IgG","human IgG [1]; Table 11, unfractionated IgG",54%
same,"% IgG Capture - Batch Binding, Human IgG",human IgG [1]; [4],71%
same,Batch Binding (% Capture of Total Load) hIgG,"human IgG [1]; peptide immobilized on NHS activated sepharose 4 fast flow, target ligand density 2.0 μmole/ml, batch filterplate, hIgG",79%
same,"% IgG Capture - Batch Binding, Human IgG1",human IgG1,58%
same,Human IgG1 elu pH 8.5 (% of Total Load),human IgG1; [3],44%
same,Human IgG1 elu pH 4.0 (% of Total Load),human IgG1; [5],14%
same,hIgG1 elution pH 2.5 (% of Total Load),human IgG1; Table 13,78%
same,hIgG1 elution pH 3.0 (% of Total Load),human IgG1; Table 13,75%
same,hIgG1 elution pH 3.5 (% of Total Load),human IgG1; Table 13,54%
same,hIgG1 elution pH 4.5 (% of Total Load),human IgG1; Table 13,55%
same,hIgG1 elution pH 5.5 (% of Total Load),human IgG1; Table 13,8%
same,hIgG1 elution pH 9.0 (% of Total Load),human IgG1; Table 13,44%
same,hIgG1 elution pH 9.5 (% of Total Load),human IgG1; Table 13,45%
same,Batch Binding (% Capture of Total Load) hIgG1,"human IgG1; peptide immobilized on NHS activated sepharose 4 fast flow, target ligand density 2.0 μmole/ml, batch filterplate, hIgG1",88%
same,"% IgG Capture - Batch Binding, Human IgG3",IgG3,7%
same,Human IgG3 elu pH 4.0 (% of Total Load),IgG3; [5],5%
same,Capacity (mg IgG/mL resin) Static,human IgG [2]; Ligand Density 0.17 μM/mL,1.1 mg IgG/mL resin
same,Capacity (mg IgG/mL resin) Static,human IgG [2]; Ligand Density 0.84 μM/mL,8.5 mg IgG/mL resin
same,Capacity (mg IgG/mL resin) Static,human IgG [2]; Ligand Density 1.45 μM/mL,13.5 mg IgG/mL resin
same,Capacity (mg IgG/mL resin) Static,human IgG [2]; Ligand Density 2.75 μM/mL,17.4 mg IgG/mL resin
